Experimental data: patent US20150266962A1 (Pfizer, published 2015)
One block for each binder: values may come before it.

Key:
[1] = biological target: T1, recombinant human IL-13 receptor alpha 2 (hIL-13-Rα2) (human, UniProt Q14627 27-343); assay: direct ELISA on recombinant hIL-13-Rα2 (given as ED50)
T1 construct: Recombinant soluble antigen coated on ELISA plates or used in Biacore; also called rec hIL-13Rα2; rhIL-13Rα2
T1 sequence (looked up): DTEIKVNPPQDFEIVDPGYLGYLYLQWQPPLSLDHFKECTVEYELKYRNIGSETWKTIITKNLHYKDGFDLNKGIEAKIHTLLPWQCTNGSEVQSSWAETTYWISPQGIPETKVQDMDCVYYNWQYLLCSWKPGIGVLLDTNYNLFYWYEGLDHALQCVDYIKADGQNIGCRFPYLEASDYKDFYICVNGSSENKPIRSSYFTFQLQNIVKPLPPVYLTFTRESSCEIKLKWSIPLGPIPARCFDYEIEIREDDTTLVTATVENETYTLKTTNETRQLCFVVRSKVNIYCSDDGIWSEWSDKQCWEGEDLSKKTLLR
Procedure: (§1) Chimeric antibodies 07 and 08 (ch07 and ch08) were constructed having murine heavy chain and light chain variable region sequences with human IgG1 heavy chain constant regions and human kappa light chain constant regions using methods known in the art. To assess the binding activity and specificity of ch07 and ch08, a standard direct ELISA protocol was performed utilizing recombinant hIL-13-Rα2 and hIL-13Ra1, receptors for IL-13 cytokine. The binding was detected by horseradish peroxidase (HRP) conjugated goat anti-human IgGKappa.

[2] = biological target: T1, recombinant human IL-13 receptor alpha …; assay: SPR Biacore, human Fab Capture Kit, 1:1 Langmuir model, pH 6.0
Procedure: (§2) To assess the binding kinetics of the ch07 and ch08 antibodies, SPR (Surface Plasmon Resonance) experiments were conducted on a Biacore® T100 or T200 instrument using a Biacore® human Fab Capture Kit (GE Healthcare). All data was analyzed using the Biacore® T100 evaluation software version 2.0 with a 1:1 Langmuir binding model.

[3] = biological target: T1, recombinant human IL-13 receptor alpha …; assay: SPR Biacore, human Fab Capture Kit, 1:1 Langmuir model, pH 7.4
Procedure: as §2

[4] = biological target: T2, cynomolgus monkey IL-13-Rα2 ECD/TM domain with C-terminal Flag tag, on transfected HEK293 cells (cynomolgus monkey, UniProt Q14627 27-363 (human entry)); assay: FACS on HEK293 cells transfected with cyno-IL-13-Rα2 (given as ED50)
T2 construct: also called cyno-IL-13-Rα2; cyno IL-13Rα2; not shown: Flag tag at the C-terminal end
T2 chain: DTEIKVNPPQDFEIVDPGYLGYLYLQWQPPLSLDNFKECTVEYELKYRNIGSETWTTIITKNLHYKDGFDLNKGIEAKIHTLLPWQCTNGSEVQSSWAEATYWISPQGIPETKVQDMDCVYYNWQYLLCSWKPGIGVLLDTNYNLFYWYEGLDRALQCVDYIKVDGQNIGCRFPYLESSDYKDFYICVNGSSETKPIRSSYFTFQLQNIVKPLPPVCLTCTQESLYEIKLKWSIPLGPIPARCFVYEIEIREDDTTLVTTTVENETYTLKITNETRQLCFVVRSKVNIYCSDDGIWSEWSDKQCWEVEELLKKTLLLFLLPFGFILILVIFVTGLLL
Procedure: The ECD/TM domain of cyno IL-13-Rα2 fused with Flag tag at the C-terminal end was cloned into the pSMED2 expression vector. HEK293 suspension cells were transiently transfected with cyno-IL-13-Rα2 containing plasmid and pSMED2 vector (as a mock transfection). The cells were harvested 72 hours later and subjected to FACS analysis. 4 antibodies including ch07, ch08, hu08v1.0/1.0 and hu08v1.1/1.1 were tested. The binding on the cell surface cyno-IL-13-Rα2 was detected with R-Phycoerythrin-labeled goat anti-human or mouse IgG.

[5] = biological target: T3, recombinant human IL-13 receptor alpha 1 (hIL-13Rα1) (human, UniProt P78552 22-343); assay: direct ELISA on plate-coated recombinant hIL-13Rα1, detected with HRP goat anti-human Ig kappa
T3 construct: also called hIL-13Ra1
T3 sequence (looked up): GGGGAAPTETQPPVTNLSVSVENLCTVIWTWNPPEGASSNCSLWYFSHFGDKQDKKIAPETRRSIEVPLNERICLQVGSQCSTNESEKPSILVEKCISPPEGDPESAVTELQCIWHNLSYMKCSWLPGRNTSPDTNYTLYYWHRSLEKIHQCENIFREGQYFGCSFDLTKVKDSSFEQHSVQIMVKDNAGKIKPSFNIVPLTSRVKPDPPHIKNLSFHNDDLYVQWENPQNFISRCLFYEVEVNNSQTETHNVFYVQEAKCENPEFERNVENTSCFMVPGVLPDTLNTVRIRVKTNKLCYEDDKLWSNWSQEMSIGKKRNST
Procedure: as §1

[6] = biological target: T1, recombinant human IL-13 receptor alpha …; assay: direct ELISA on rhIL-13Rα2 (given as ED50)
[7] = biological target: T1, recombinant human IL-13 receptor alpha …; assay: direct ELISA on rhIL-13Rα2, purified protein (given as ED50)
[8] = biological target: T1, recombinant human IL-13 receptor alpha …; assay: competition ELISA on plate, competitor biotinylated ch07, purified protein

- EC50 [1]: 0.076 nM
- Kd [2]: 5.36 nM
- koff [2]: 0.000381 s⁻¹
- kon [2]: 71200 M⁻¹ s⁻¹
- Kd [3]: 0.964 nM
- koff [3]: 0.000416 s⁻¹
- kon [3]: 432000 M⁻¹ s⁻¹
- EC50 [4]: 1.81 nM
- binding result [5]: no binding (tested: about 7 nM)
B1: chimeric antibody ch08 (antibody, human IgG1, V domains shown)
VH: EVQLVESGGDLVRPGGSLQLSCAASGFTFSRNGMSWVRQTPDRRLEWVATVSSGGSYIYYADSVKGRFTISRDNARNTLYLQMSSLKSEDTAMYYCARQGTTALATRFFDVWGAGTTVTVSS
VL: DIVMTQSHKFISTSVGDRVSITCKASQDVGTAVAWYQQIPGQSPKLLIYSASYRSTGIPDRFTGSGSGTDFSFIISSVQAEDLALYYCQHHYSAPWTFGGGTTLDIK
notes: also called ch08Hc + Lc; chimeric antibody 08

- EC50 [6]: 0.217 nM
- EC50 [1]: 0.15 nM
- Kd [2]: 5.24 nM
- koff [2]: 0.000337 s⁻¹
- kon [2]: 64300 M⁻¹ s⁻¹
- Kd [3]: 0.648 nM
- koff [3]: 0.000234 s⁻¹
- kon [3]: 361000 M⁻¹ s⁻¹
- EC50 [7]: 0.39 nM
- EC50 [4]: 1.49 nM
- IC50 [8]: 2.21 nM
- binding result [5]: no binding (tested: about 7 nM)
B2: chimeric antibody ch07 (antibody, human IgG1, V domains shown)
VH: QVQLKESGPGLVAPSQSLSINCTVSGFSLTKYGVHWIRQSPGKGLEWLGVKWAGGSTDYNSALMSRLTISKDNNKSQVFLKMNSLQSDDSAMYYCARDHRDAMDYWGQGTSVTVSS
VL: QVVLTQSPAIMSASPGERVTMTCTASLSVSSTYLHWYHQKPGSSPKLWIYSTSNLASGVPARFSGSGSGTSYSLTISSMEAEDAATYYCHQYHRSPLTFGSGTKLELK
notes: also called chimeric antibody 07; biotin-ch07 (biotinylated form)
